Test results from publication doi:10.1101/2025.02.17.637997, “Phosphorylation-State Modulated Binding of HSP70: Structural Insights and Compensatory Protein Engineering” (bioRxiv, 2025).
Entries after “also recorded” stand apart in the source; their conditions may differ. Each block holds one molecule with its values, some of them ahead of it. Square brackets hold non-standard residues; d marks the D form. Ends that are not written are not given here. * marks the point of attachment. FITC = O=C1OC2(c3ccc(O)cc3Oc3cc(O)ccc32)c2ccc(NC(=S)*)cc21; Biotin = O=C1N[C@H]2[C@H](CS[C@H]2CCCCC(=O)*)N1; pT = C[C@@H](OP(=O)(O)O)[C@H](N)C(=O)O; Ahx = NCCCCCC(=O)O

Assays:
[1] = system: HSP70 steady-state levels in HEK-293 cells; experiment: Cycloheximide chase of HSP70 steady-state levels, HEK-293; format: cell-based; settings: Flag immunoblot, representative, Fig. S1
Description: (§1) HEK293 and COS-7 cells were acquired from the UNC Lineberger Comprehensive Cancer Center Tissue Culture Facility. Cultures were maintained in Dulbecco’s Modified Eagle Medium with 10% fetal bovine serum at 37 °C and 5% CO2. Using the manufacturers’ instructions, X-tremeGENE 9 was used to transfect cells with plasmid DNA except for NanoBiT constructs, in which case we used Lipofectamine 3000 (Thermo Fisher Scientific). Where indicated, twenty-four hours post-transfection, cells were treated with 20 μM MG-132 (Selleck Chemicals) for 6 h or 100 μM cycloheximide (Sigma-Aldrich) for the stated duration.
(§2) Samples were collected in a lysis buffer composed of 50 mM Tris-HCl (pH 7.4), 150 mM NaCl, 2 mM EDTA, and 1% Triton X-100, supplemented with 1X Halt protease and phosphatase inhibitor (Thermo Scientific). The samples were then sonicated and combined with Laemmli sample buffer (Bio-Rad). The lysates were resolved on 4–15% TGX Stain-Free gels (Bio-Rad) and transferred to PVDF membranes (Bio-Rad). The membranes were blocked in 5% milk and incubated with primary antibodies (Table S3) overnight at 4°C. Following this, HRP-conjugated secondary antibodies (Cell Signaling Technology) were applied. Detection was performed using Lumigen ECL Ultra (Lumigen, tma-100), and the blots were imaged with the ChemiDoc Imaging System (BioRad).

CHIP-TPR N65S = target: T1, CHIP-TPR N65S (UniProt Q9UNE7 21-154, N65S); experiment: BLI; BLItz, biotin peptides loaded on streptavidin sensors, TPR protein constructs at 1 to 25 μM; 20 mM HEPES, 150 mM NaCl, 5 mM β-mercaptoethanol, pH 7.2; Kd=koff/kon; settings: both partners purified
T1 construct: CHIP, extended TPR domain, residues 21-154, with N65S; control of the BLI experiment; also called CHIP-N65S
T1 sequence (looked up): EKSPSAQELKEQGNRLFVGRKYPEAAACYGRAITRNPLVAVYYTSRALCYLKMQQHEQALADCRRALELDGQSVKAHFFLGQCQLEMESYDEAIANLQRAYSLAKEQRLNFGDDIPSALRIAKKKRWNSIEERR

CHIP-TPR G132S = target: T2, CHIP-TPR G132S (UniProt Q9UNE7 21-154, G132S); experiment: as above; settings: both partners purified
T2 construct: CHIP, extended TPR domain, residues 21-154, with G132S; site modification control of the BLI experiment; also called CHIP-G132S
T2 sequence (looked up): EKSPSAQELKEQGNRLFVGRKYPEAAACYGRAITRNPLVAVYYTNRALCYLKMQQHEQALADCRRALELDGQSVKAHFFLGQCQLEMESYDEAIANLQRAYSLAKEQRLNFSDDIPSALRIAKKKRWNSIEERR

CHIP-TPR (21–154) [2] = target: T3, CHIP-TPR (21–154) (UniProt Q9UNE7 21-154); experiment: crystal structure; CHIP-TPR co-crystallised with peptide at a 3:1 peptide:protein ratio, sitting drop vapor diffusion at room temperature; 0.2 M lithium sulfate, 0.1 M Tris-HCl, pH 8.5, 30% PEG 4000; settings: both partners purified
T3 construct: also called extended TPR domain of CHIP
T3 sequence (looked up): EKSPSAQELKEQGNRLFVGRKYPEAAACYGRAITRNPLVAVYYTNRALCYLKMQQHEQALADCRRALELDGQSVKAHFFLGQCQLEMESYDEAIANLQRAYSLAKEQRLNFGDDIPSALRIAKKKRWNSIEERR

[3] = target: T4, recombinant full-length CHIP-WT (UniProt Q9UNE7 1-303); experiment: fluorescence polarisation; 20 nM N-terminally FITC-labelled peptide, recombinant CHIP constructs at increasing concentrations, 30 minutes at room temperature; one site/total binding fit with Bmax constrained to 100; settings: both partners purified
T4 sequence (looked up): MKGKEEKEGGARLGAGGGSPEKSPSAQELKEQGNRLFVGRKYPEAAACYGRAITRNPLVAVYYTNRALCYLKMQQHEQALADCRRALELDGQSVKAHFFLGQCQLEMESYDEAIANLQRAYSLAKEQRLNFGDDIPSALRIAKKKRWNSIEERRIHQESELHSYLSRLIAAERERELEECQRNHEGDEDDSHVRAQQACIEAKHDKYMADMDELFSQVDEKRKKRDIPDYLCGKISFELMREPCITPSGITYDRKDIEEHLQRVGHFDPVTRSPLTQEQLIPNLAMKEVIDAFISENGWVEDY

[4] = target: T5, recombinant full-length CHIP-G132N (UniProt Q9UNE7 1-303, G132N); experiment: as above; settings: both partners purified
T5 construct: CHIP, full-length recombinant protein with G132N
T5 sequence (looked up): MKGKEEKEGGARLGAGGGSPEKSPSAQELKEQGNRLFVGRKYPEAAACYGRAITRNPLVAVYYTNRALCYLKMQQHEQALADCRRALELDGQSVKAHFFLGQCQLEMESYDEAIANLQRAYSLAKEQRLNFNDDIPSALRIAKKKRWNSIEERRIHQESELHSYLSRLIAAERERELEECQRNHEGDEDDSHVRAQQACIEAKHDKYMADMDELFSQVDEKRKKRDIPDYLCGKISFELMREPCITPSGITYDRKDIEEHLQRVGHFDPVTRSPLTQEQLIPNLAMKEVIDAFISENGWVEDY

CHIP-TPR (21–154) [5] = target: T3, CHIP-TPR (21–154); experiment: as above; settings: both partners purified
[6] = target: T6, recombinant full-length CHIP-WT (UniProt Q9UNE7 1-303); experiment: FP
T6 chain: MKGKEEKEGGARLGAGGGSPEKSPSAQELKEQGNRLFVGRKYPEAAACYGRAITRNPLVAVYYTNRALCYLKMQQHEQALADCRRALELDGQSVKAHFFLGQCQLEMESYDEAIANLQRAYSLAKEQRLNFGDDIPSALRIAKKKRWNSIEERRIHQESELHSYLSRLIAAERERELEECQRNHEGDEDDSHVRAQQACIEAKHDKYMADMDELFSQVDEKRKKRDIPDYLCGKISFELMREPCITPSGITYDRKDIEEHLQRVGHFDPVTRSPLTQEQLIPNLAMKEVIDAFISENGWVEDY

[7] = target: recombinant full-length CHIP-G132N (UniProt Q9UNE7 1-303, G132N); experiment: FP
HSC70 = experiment: Cell-free ubiquitination of HSC70 by CHIP; format: biochemical, human; settings: 100 nM Uba1, 1 μM UBE2D2, 200 nM Hsc70, 100 μM Ub, 1 μM CHIP, pH 8.0, 15 min, room temperature; three experiments; p = 0.0774; Fig. 1K
Description: Ubiquitination assays were conducted using recombinant human HSC70, fluorescently tagged on its N-terminus. All assay components except ubiquitin were premixed on ice in a BSA-containing buffer (20 mM HEPES, pH 8.0; 200 mM NaCl; 0.5 mg/mL BSA). Reactions were initiated by adding ubiquitin and were allowed to proceed at room temperature unless specified otherwise. The reactions contained a final concentration of 100 nM Uba1, 1 μM UBE2D2, 200 nM Hsc70, 100 μM Ub, 5 mM MgCl2-ATP, and 1 μM CHIP. The reactions proceeded for 15 minutes before being quenched with SDS loading buffer. The quenched samples were separated by molecular weight via SDS-PAGE in non-reducing conditions using GenScript SurePAGE 4–12% gels. The CHIP-dependent ubiquitination of Hsc70 was visualized and quantified through fluorescent scanning on an Amersham Typhoon 5.

CHIP-G132N = target: T7, CHIP-G132N (Homo sapiens, UniProt Q9UNE7, G132N); experiment: Biolayer interferometry, CHIP-G132N TPR; format: binding; settings: BLI; CHIP-G132N TPR; Fig. 2E
T7 construct: Recombinant CHIP-TPR constructs were recombinantly expressed using the pHis//2 CHIP-TPR (21–154) plasmid; His; made in house
T7 sequence (Q9UNE7 21-154 G132N): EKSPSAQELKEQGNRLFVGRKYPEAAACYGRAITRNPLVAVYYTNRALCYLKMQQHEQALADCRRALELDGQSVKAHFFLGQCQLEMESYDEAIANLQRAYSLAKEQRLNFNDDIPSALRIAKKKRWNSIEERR
Description: Bio-layer interferometry measured peptide binding using a BLItz instrument (FortéBio, Sartorius) with streptavidin (SA) sensors. Biotin-EEVD and biotin-pEEVD were solubilized in 20 mM HEPES, 150 mM NaCl, pH 7.0. Affinity measurements were made using the advanced kinetic protocol within the BLItz Pro system software. Biosensors were hydrated for ten minutes in assay buffer comprising 20 mM HEPES, 150 mM NaCl, 5 mM β-mercaptoethanol, pH 7.2. For each affinity measurement, a new, hydrated biosensor was placed on the BLItz tip, and the “Initial Baseline” step was completed by incubation for 30 seconds in 500 μl assay buffer in an opaque black microcentrifuge tube (Argos Technologies). Peptides were loaded during the “Loading Step” by incubating the tip in 4 μl of either peptide for 60 seconds. The “Baseline step” was then conducted by incubation for 30 seconds in 500 μl assay buffer in an opaque black microcentrifuge tube. The “Association step” was performed by incubating the tip in 4 μl of the appropriate TPR protein construct, at protein concentrations of 1 to 25 μM, in assay buffer in an opaque black microcentrifuge tube for 120 seconds. […] Affinities (Kd) were calculated by the BLItz Pro software as Kd=koff/kon, where koff and kon were determined by individual fits to the “dissociation step” and “association step,” respectively, for each run.

LgBiT-HSP70 T636A/D = experiment: NanoBiT live-cell interaction, HEK-293, CHIP variants with LgBiT-HSP70; format: cell-based; settings: compared with CHIP-WT, Fig. 1E
Description: as §1
NanoBiT Protein: Protein Interaction System (Promega) was used to measure protein-protein interaction data following the manufacturer’s instructions. As previously described, LgBiT-HSP70 and SmBiT-CHIP construct interactions were used as positive controls ([22]). Twenty-four hours post-transfection, the cells were collected, replated in 96-well clear bottom white-sided tissue culture plates, and maintained at 37 °C and 5% CO2 for 45 min. Nano-Glo Live Cell Reagent (Promega) was added, and luminescence was measured using a CLARIOstar microplate reader over 20 minutes. The total area under the maximum luminescence curve was quantified and used to compare changes in HSP70-CHIP interactions relative to the WT-WT conditions.

HSP70 = experiment: Co-immunoprecipitation of CHIP variants with HSP70, COS-7; format: cell-based; settings: Co-IP of MYC-CHIP, Fig. 1I
Description: as §2
Ezview™ Red Anti-c-Myc Affinity Gel Beads (Sigma-Aldrich) were used for co-immunoprecipitation of myc-tagged proteins. Proteins were eluted via boiling before western blot analysis.

Molecule: HSP70-T636A: phospho-null version of HSP70
percent change of HSP70 level from time 0 ([1]; cycloheximide +MG132, 6 h (column from layout)): +31%
percent change of HSP70 level from time 0 ([1]; cycloheximide, 6 h, without MG132 (column from layout)): -84%

binding result (CHIP-TPR N65S): binds
binding result (CHIP-TPR G132S): binds
B1: amino-terminal biotin-labeled HSP70 tail peptide biotin-GSGSGPTIEEVD (peptide)
peptide: Biotin-GSGSGPTIEEVD
notes: C-terminal tail of HSP70; loaded on streptavidin sensors for BLI; also called biotin-EEVD; source: synthetic peptide, bought: Lifetein

binding result (CHIP-TPR (21–154) [2]): binds
B2: unphosphorylated HSP(C)70 peptide GPTIEEVD (peptide)
peptide: GPTIEEVD
notes: C-terminal tail of HSP70 (T636 is the third residue); used for co-crystallisation with CHIP-TPR; also called HSP70 peptide; HSP70 tail; source: synthetic peptide (Lifetein or Genscript)

binding result (CHIP-TPR N65S): binds
binding result (CHIP-TPR G132S): binds
B3: amino-terminal biotin-labeled pT-HSP70 tail peptide biotin-GSGSGP(pT)IEEVD (peptide)
peptide: Biotin-GSGSGP[pT]IEEVD
notes: loaded on streptavidin sensors for BLI; also called biotin-pEEVD; pEEVD; source: synthetic peptide, bought: Lifetein

binding result (CHIP-TPR (21–154) [2]): binds
B4: phosphorylated HSP(C)70 peptide GP(pT)IEEVD (peptide)
peptide: GP[pT]IEEVD
notes: used for co-crystallisation with CHIP-TPR; also called pEEVD; pT-HSP70 peptide; source: synthetic peptide (Lifetein or Genscript)

binding result [3]: binds
binding result [4]: binds
binding result (CHIP-TPR (21–154) [5]): binds
Kd [6]: 46 µM
Kd [7]: 96 µM
B5: N-FITC-Ahx-GSGP(pT)IEEVD (peptide)
peptide: {FITC-Ahx}-GSGP[pT]IEEVD
notes: tracer of the fluorescence polarisation assay; also called pEEVD; phosphorylated EEVD peptide; source: synthetic peptide (Lifetein or Genscript)

effect on binding affinity towards phosphorylated EEVD tail (CHIP-G132N): rescued the binding affinity
B6: CHIP-G132N: engineered CHIP variant to restore binding affinity to phosphorylated HSP70 (protein)
chain: MKGKEEKEGGARLGAGGGSPEKSPSAQELKEQGNRLFVGRKYPEAAACYGRAITRNPLVAVYYTNRALCYLKMQQHEQALADCRRALELDGQSVKAHFFLGQCQLEMESYDEAIANLQRAYSLAKEQRLNFNDDIPSALRIAKKKRWNSIEERRIHQESELHSYLSRLIAAERERELEECQRNHEGDEDDSHVRAQQACIEAKHDKYMADMDELFSQVDEKRKKRDIPDYLCGKISFELMREPCITPSGITYDRKDIEEHLQRVGHFDPVTRSPLTQEQLIPNLAMKEVIDAFISENGWVEDY
ubiquitination of HSC70 (HSC70): not different; also recorded: trend towards decreased ligase activity
luminescence of CHIP variant with HSP70-T636A/D (LgBiT-HSP70 T636A/D): lower luminescence
co-precipitation of HSP70 by CHIP variant (HSP70): did not override the effect of the HSP70-T636D phosphomimetic

B7: CHIP-WT: wild-type CHIP, E3 ligase co-chaperone (protein)
chain: MKGKEEKEGGARLGAGGGSPEKSPSAQELKEQGNRLFVGRKYPEAAACYGRAITRNPLVAVYYTNRALCYLKMQQHEQALADCRRALELDGQSVKAHFFLGQCQLEMESYDEAIANLQRAYSLAKEQRLNFGDDIPSALRIAKKKRWNSIEERRIHQESELHSYLSRLIAAERERELEECQRNHEGDEDDSHVRAQQACIEAKHDKYMADMDELFSQVDEKRKKRDIPDYLCGKISFELMREPCITPSGITYDRKDIEEHLQRVGHFDPVTRSPLTQEQLIPNLAMKEVIDAFISENGWVEDY
ubiquitination of HSC70 (HSC70): not different
